Results as given in PMC2788937 (Science signaling, 2009).
No end group written: not given here.

Assays:
[1] = biological target: FLAG-tagged human β2-adrenergic receptor (human, UniProt P07550 1-413); assay: pull-down
GST-β2AR(330–413) = GST-β2AR(330–413) (human, UniProt P07550 330-413); assay: pull-down

binding result [1] | binding result (GST-β2AR(330–413)) | Binder
binds | – | LRGDQITWIGGNEEGCEAISFLLSLIDRLVLYCGSRLGKYYVKE (domain or fragment, human, UniProt Q9H6Z9 73-116, looked up) [GST-EGLN3^(73-116)]
– | binds | EAISFLLSLIDRLVLY (also: FITC label, position not given here) [FITC-labeled peptide derived from human EGLN3(89–104)]
